{
  "source": "paper PMC5424357",
  "assay_in_all_cases": "purified protein",
  "conditions_in_all_cases": "optimal conditions (optimum pH 8.0, 30 °C), substrate range stated 0.2–2.4 mM",
  "key": {"[1]": {"tested_on": "C#CCOC(=O)[C@@H](C)Oc1ccc(Oc2ncc(Cl)cc2F)cc1"}, "[2]": {"tested_on": "CCCCOC(=O)[C@@H](C)Oc1ccc(Oc2ccc(C#N)cc2F)cc1"}, "[3]": {"tested_on": "CCOC(=O)[C@@H](C)Oc1ccc(Oc2nc3ccc(Cl)cc3o2)cc1"}, "[4]": {"tested_on": "COC(=O)[C@@H](C)Oc1ccc(Oc2ncc(C(F)(F)F)cc2Cl)cc1"}, "[5]": {"tested_on": "C[C@@H](Oc1ccc(Oc2cnc3cc(Cl)ccc3n2)cc1)C(=O)OCC1CCCO1"}},
  "data": [
    {"substance": "QpeH (Pseudomonas sp.)", "values": [
      {"measurement": "Km", "setting": "[1]", "result": "174.0 ± 4.2", "unit": "µM"},
      {"measurement": "kcat", "setting": "[1]", "result": "37.1 ± 2.9", "unit": "s⁻¹"},
      {"measurement": "kcat/Km", "setting": "[1]", "result": "210000 ± 20000", "unit": "M⁻¹ s⁻¹"},
      {"measurement": "Km", "setting": "[2]", "result": "158.2 ± 3.5", "unit": "µM"},
      {"measurement": "kcat", "setting": "[2]", "result": "41.1 ± 4.1", "unit": "s⁻¹"},
      {"measurement": "kcat/Km", "setting": "[2]", "result": "260000 ± 30000", "unit": "M⁻¹ s⁻¹"},
      {"measurement": "Km", "setting": "[3]", "result": "26.9 ± 4.3", "unit": "µM"},
      {"measurement": "kcat", "setting": "[3]", "result": "162 ± 3.4", "unit": "s⁻¹"},
      {"measurement": "kcat/Km", "setting": "[3]", "result": "6.01e+06 ± 50000", "unit": "M⁻¹ s⁻¹"},
      {"measurement": "Km", "setting": "[4]", "result": "113.9 ± 3.8", "unit": "µM"},
      {"measurement": "kcat", "setting": "[4]", "result": "67.4 ± 2.6", "unit": "s⁻¹"},
      {"measurement": "kcat/Km", "setting": "[4]", "result": "590000 ± 40000", "unit": "M⁻¹ s⁻¹"},
      {"measurement": "Km", "setting": "[5]", "result": "29.5 ± 2.7", "unit": "µM"},
      {"measurement": "kcat", "setting": "[5]", "result": "146 ± 3.3", "unit": "s⁻¹"},
      {"measurement": "kcat/Km", "setting": "[5]", "result": "4.96e+06 ± 90000", "unit": "M⁻¹ s⁻¹"}
    ]}
  ]
}
